Data from patent US10568344B2, “Methods of improving animal performance” (Novozymes A/S, priority 2015, dated 2020).
Marks after values point to notes of the source that are not given here.

Assays:
[1] = In vivo piglet trial, growth performance; design: species or system weaned piglets
Method: The trial was performed from Oct. 23 to Dec. 4, 2014 at the Research Center for Animal Nutrition (DSM Nutritional Products France, F-68305 Village-Neuf) according to the official French guidelines for experiments with live animals. One hundred and four castrated male crossbred (Large-White (female)×Redon (male)) weaned piglets having 28 days of age supplied by the commercial farm “[…] du Rhin” located in Balgau (France), were used in a 42-day experiment. The initial bodyweight of the piglets was 7.88±0.675 kg. They were sorted by body weight into 32 groups of 3 or 4 piglets and randomly allotted to each dietary treatment. Each group of animals was placed in one flat-deck cages and allocated to one of the different treatments. Each treatment was replicated with 8 cages using a total of 26 animals (6 cages of 3 animals/treatment and 2 cages of 4 animals/treatment) per treatment. […] Animals were housed in an environmentally controlled room. Room temperature was initially 27° C. and was lowered weekly by about 2° C. until 21-22° C. and relative humidity percentage was 50%. The experimental diets (Pre-Starter and Starter) were fed ad libitum in two feeding phases from day 0 to 14 (phase 1, Pre-starter) and day 14 to 42 (phase 2, Starter). The ingredient composition and the calculated nutrient levels of the experimental diets for phases 1 and 2 are presented in table 11. Both diets were formulated to meet the animals' requirements according NRC (2012) and were fed in pelleted form. Pelleting conditions were at 70° C. for 30 seconds. […] No additional enzymes (e.g. phytase) were added to the feed. […] Appropriate amount of the liquid preparations of lysozyme was diluted in water and sprayed onto the respective pelleted feed to get the final concentrations in the feed corresponding to the different treatments. For procedural balance of all treatments the same volume of water were also sprayed onto the pellets of the control diets. Body weight of the individual animals and feed consumption per pen were recorded on days 14 and 42 of the study. […] The experimental unit was the piglet, except for ADFI and FCR which were measured by cage, and in both cases, treatment was used as class variable. One-factorial ANOVA and Student-Newman-Keuls test was used to assess differences among means in treatment groups.

Clostridiales = test: Microbiota analysis of broiler trial 4 (16S rRNA), Clostridiales; type: in vivo, chicken; design: key to Observed shift compared to the control group, Significance: Significant change (+++), padj < 0.05; Numerical change (+); settings: 50 ppm
Faecalibacterium = test: Microbiota analysis of broiler trial 4 (16S rRNA), Faecalibacterium; type: in vivo, chicken; design: key to Observed shift compared to the control group, Significance: Significant change (+++), padj < 0.05; Numerical change (+); settings: 50 ppm
[2] = In vivo broiler trial 2, growth performance; design: species or system male broiler chickens
Method: No additional enzymes (e.g. phytase) were added to the feed. The experimental diets (Starter and Grower) were based on soybean meal, wheat and rye (12%) as main ingredients (Table 6). The diets were formulated to contain 222 g crude protein and 12.5 MJ/kg MEN for the starter period and 204 g crude protein and 12.7 MJ/kg MEN for the grower period.

[3] = Grower (d 22-36), 6.25 mg/kg feed
[4] = Grower (d 22-36), 12.5 mg/kg feed
[5] = Grower (d 22-36), 25 mg/kg feed
[6] = Starter (d 1-22), 6.25 mg/kg feed
[7] = Starter (d 1-22), 12.5 mg/kg feed
[8] = Starter (d 1-22), 25 mg/kg feed
[9] = Whole period (d 1-36), 6.25 mg/kg feed
[10] = Whole period (d 1-36), 12.5 mg/kg feed
[11] = Whole period (d 1-36), 25 mg/kg feed

B1: SEQ ID NO: 1: mature amino acid sequence of a wild type GH25 lysozyme from Acremonium alcalophilum with N-terminal SPIRR (protein)
chain: SPIRRRIPGFDISGWQPTTDFARAYANGDRFVYIKATEGTTFKSSAFSRQYTGATQNGFIRGAYHFAQPAASSGAAQARYFASNGGGWSKDGITLPGALDIEYNPNGATCYGLSQSAMVNWIEDFVTTYHGITSRWPVIYTTTDWWTQCTGNSNRFANRCPLWIARYASSVGTLPNGWGFYTFWQYNDKYPQGGDSNWFNGDASRLRALANGD
modifications: Wild type sequence with N-terminal SPIRR
In the case of B1, the “ADFI, % relative NC” value ([1]; day 0-14, 50 ppm) is reported as 90.0%, the “ADFI, Mean” value ([1]; day 0-14, 50 ppm) is reported as 324 g/day and the “ADWG, % relative NC” value ([1]; day 0-14, 50 ppm) is reported as 96.2%. The “ADWG, Mean” value ([1]; day 0-14, 50 ppm) was 279 g/day, the “FCR, % relative NC” value ([1]; day 0-14, 50 ppm) was 94.4% and the “FCR, Mean” value ([1]; day 0-14, 50 ppm) was 1.170^a. The “ADFI, % relative NC” value ([1]; day 0-42, 50 ppm) was 93.1%, the “ADFI, Mean” value ([1]; day 0-42, 50 ppm) was 683^a g/d and the “ADWG, % relative NC” value ([1]; day 0-42, 50 ppm) was 102.4%. For the same molecule, the “ADWG, Mean” value ([1]; day 0-42, 50 ppm) was 511 g/day, the “EPEF, % relative NC” value ([1]; day 0-42, 50 ppm) was 113.0% and the “EPEF, Mean” value ([1]; day 0-42, 50 ppm) was 383. The “FCR, % relative NC” value ([1]; day 0-42, 50 ppm) was 90.4%, the “FCR, Mean” value ([1]; day 0-42, 50 ppm) was 1.341^a and the “ADFI, % relative NC” value ([1]; day 14-42, 50 ppm) was 92.7%. For the same molecule, the “ADFI, Mean” value ([1]; day 14-42, 50 ppm) was 862^a g/d, the “ADWG, % relative NC” value ([1]; day 14-42, 50 ppm) was 104.0% and the “ADWG, Mean” value ([1]; day 14-42, 50 ppm) was 627 g/day. For the same molecule, the “FCR, % relative NC” value ([1]; day 14-42, 50 ppm) was 89.3%, the “FCR, Mean” value ([1]; day 14-42, 50 ppm) was 1.379^a and the “Improvement on FCR compared to the negative control” value ([1]; overall period (day 0 to day 42), 50 mg/kg) was 9.6%. The “Improvement to FCR compared to NC” value ([1]; starter period, day 15 to day 42, 50 mg/kg) was 11.3%, the “Improvement of ADWG compared to the negative control diet” value ([1]; starter period, 50 mg/kg) was 4.0% and the “EPEF improvement compared to the negative control” value ([1]; whole period, 50 mg/kg) was 13.0%. For the same molecule, the “Improvement of ADWG compared to the negative control diet” value ([1]; whole period, 50 mg/kg) was 2.4%, the “Observed shift compared to the control group, Significance” value (shortened to “Observed shift … Significance”) (Clostridiales; Order level (Clostridiales)) was “+” and the “Clostridiales Change vs control” value (Clostridiales; order level) was 5.3792. The “Clostridiales Ratio vs control” value (Clostridiales; order level) was 1.1671, the “Clostridiales abundance, Lysozyme treatment” value (Clostridiales; order level, ceca content) was 37.5638 and the “Observed shift … Significance” value (Faecalibacterium; Genus level (Faecalibacterium)) was “+”. For the same molecule, the “Observed shift … Significance” value (Faecalibacterium; OTU level (Faecalibacterium species)) was “+++ (Significant change (+++), padj < 0.05)”, the “OTU #27 (Faecalibacterium) Change vs control” value (Faecalibacterium; OTU level) was 3.45 and the “OTU #27 (Faecalibacterium) Ratio vs control” value (Faecalibacterium; OTU level) was 16.53. The “OTU #27 (Faecalibacterium) abundance, Lysozyme treatment” value (Faecalibacterium; OTU level, ceca content) was 3.67, the “Faecalibacterium Change vs control” value (Faecalibacterium; genus level) was 5.65 and the “Faecalibacterium Ratio vs control” value (Faecalibacterium; genus level) was 4.04. For the same molecule, the “Faecalibacterium abundance, Lysozyme treatment” value (Faecalibacterium; genus level, ceca content) was 7.50, the FCR [2, 3] was 1.753^a and the “FCR, Relative to C (%)” value [2, 3] was 101.9%. The Feed intake [2, 3] was 2705 g/b, the “Feed intake, Relative to C (%)” value [2, 3] was 99.1% and the Weight gain [2, 3] was 1545 g/b. The “Weight gain, Relative to C (%)” value [2, 3] was 97.4%, the FCR [2, 4] was 1.692^a and the “FCR, Relative to C (%)” value [2, 4] was 98.3%. The Feed intake [2, 4] was 2671 g/b, the “Feed intake, Relative to C (%)” value [2, 4] was 97.8% and the Weight gain [2, 4] was 1581 g/b. The “Weight gain, Relative to C (%)” value [2, 4] was 99.7%, the FCR [2, 5] was 1.686^a and the “FCR, Relative to C (%)” value [2, 5] was 98%. For the same molecule, the Feed intake [2, 5] was 2753 g/b, the “Feed intake, Relative to C (%)” value [2, 5] was 100.8% and the Weight gain [2, 5] was 1633 g/b. The “Weight gain, Relative to C (%)” value [2, 5] was 102.9%, the FCR [2, 6] was 1.403^ab and the “FCR, Relative to C (%)” value [2, 6] was 101.8%. The Feed intake [2, 6] was 1551^ab g/b, the “Feed intake, Relative to C (%)” value [2, 6] was 105.4% and the Weight gain [2, 6] was 1106 g/b. The “Weight gain, Relative to C (%)” value [2, 6] was 103.6%, the FCR [2, 7] was 1.339^b and the “FCR, Relative to C (%)” value [2, 7] was 97.1%. For the same molecule, the Feed intake [2, 7] was 1403^d g/b, the “Feed intake, Relative to C (%)” value [2, 7] was 95.4% and the Weight gain [2, 7] was 1049 g/b. For the same molecule, the “Weight gain, Relative to C (%)” value [2, 7] was 98.3%, the FCR [2, 8] was 1.332^b and the “FCR, Relative to C (%)” value [2, 8] was 96.6%. The Feed intake [2, 8] was 1434^cd g/b, the “Feed intake, Relative to C (%)” value [2, 8] was 97.4% and the Weight gain [2, 8] was 1076 g/b. The “Weight gain, Relative to C (%)” value [2, 8] was 100.9%, the FCR [2, 9] was 1.604^a and the “FCR, Relative to C (%)” value [2, 9] was 101.6%. For the same molecule, the Feed intake [2, 9] was 4249 g/b, the “Feed intake, Relative to C (%)” value [2, 9] was 101.4% and the Weight gain [2, 9] was 2651 g/b. The “Weight gain, Relative to C (%)” value [2, 9] was 99.9%, the FCR [2, 10] was 1.548^bc and the “FCR, Relative to C (%)” value [2, 10] was 98.1%. For the same molecule, the Feed intake [2, 10] was 4069 g/b, the “Feed intake, Relative to C (%)” value [2, 10] was 97.1% and the Weight gain [2, 10] was 2630 g/b. For the same molecule, the “Weight gain, Relative to C (%)” value [2, 10] was 99.1%, the FCR [2, 11] was 1.543^c and the “FCR, Relative to C (%)” value [2, 11] was 97.8%. For the same molecule, the Feed intake [2, 11] was 4181 g/b, the “Feed intake, Relative to C (%)” value [2, 11] was 99.8% and the Weight gain [2, 11] was 2709 g/b. For the same molecule, the “Weight gain, Relative to C (%)” value [2, 11] was 102.1%, the “Improvement of FCR compared to the control diet” value ([2]; day 1 to day 36, 12.5 mg/kg) was 1.9% and the “Improvement of FCR compared to the control diet” value ([2]; day 1 to day 36, 25 mg/kg) was 2.2%. For the same molecule, the “Improvement of weight gain compared to C” value ([2]; day 1 to day 36, 25 mg/kg) was 2.0%, the “Improvement of FCR compared to the control diet” value ([2]; grower period, 25 mg/kg) was 2.0% and the “Improvement of weight gain compared to the control diet” value ([2]; grower period, 25 mg/kg) was 2.9%. The “Improvement of weight gain compared to the control diet” value ([2]; starter period, 6.25 mg/kg) was 3.6%, the “Improvement of FCR compared to the control diet” value ([2]; starter period, 12.5 mg/kg) was 2.9% and the “Improvement of FCR compared to the control diet” value ([2]; starter period, 25 mg/kg) was 3.4%.
